# T1: CD44 (Mus musculus, UniProt P15379)
# T1 construct: biotinylated rOA added onto MC3T3-E1 cells; endogenous in cells; host or cells: MC3T3-E1
# T1 sequence (P15379 23-778): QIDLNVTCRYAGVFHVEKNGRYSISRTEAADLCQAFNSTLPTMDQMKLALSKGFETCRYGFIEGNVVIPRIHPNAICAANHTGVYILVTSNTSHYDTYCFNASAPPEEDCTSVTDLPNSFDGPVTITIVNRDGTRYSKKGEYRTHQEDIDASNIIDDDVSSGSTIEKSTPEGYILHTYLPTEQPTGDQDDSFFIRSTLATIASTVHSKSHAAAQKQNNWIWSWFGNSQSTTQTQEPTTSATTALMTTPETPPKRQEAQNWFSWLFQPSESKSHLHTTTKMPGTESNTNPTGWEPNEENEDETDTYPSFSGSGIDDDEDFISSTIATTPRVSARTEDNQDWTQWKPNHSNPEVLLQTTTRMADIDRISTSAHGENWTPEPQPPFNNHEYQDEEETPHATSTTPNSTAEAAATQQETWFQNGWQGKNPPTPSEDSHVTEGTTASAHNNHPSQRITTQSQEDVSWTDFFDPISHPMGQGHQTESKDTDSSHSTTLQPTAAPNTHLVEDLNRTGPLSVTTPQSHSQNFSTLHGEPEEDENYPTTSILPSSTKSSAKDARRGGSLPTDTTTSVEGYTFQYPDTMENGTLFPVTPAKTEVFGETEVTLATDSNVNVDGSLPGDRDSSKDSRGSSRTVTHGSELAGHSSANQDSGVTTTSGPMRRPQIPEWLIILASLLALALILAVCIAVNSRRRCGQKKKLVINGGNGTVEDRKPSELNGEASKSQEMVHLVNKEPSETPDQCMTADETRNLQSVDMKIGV
# Columns and labels:
# [1] = Osteogenic activity of the peptide fragment
# From the text: A preferred osteoactivin active peptide fragment for use in the present invention is the amino acid sequence LAPFSRGDREKDPLLQDK (SEQ ID NO: 1). […] Accordingly, in some embodiments, shorter sections of SEQ ID NO: 1 consisting of 6 or 12 amino acids can be used.
# [2] = tested on: bone defect; settings: at 4 weeks; none of the control animals showed complete bone fill; cited from earlier work
# [3] = tested on: bone segmental defect; assay: Local delivery in a model of bone segmental defect; format: in vivo
# From the text: It is synthesized and secreted by osteoblasts where it acts as signaling molecule to promote osteoblast differentiation and function. […] Research has also shown that OA is involved in mouse and human stem cells differentiation to bone cells, and that OA is responsible to transdifferentiate muscle cells to bone forming osteoblasts. The receptor for OA in bone and mesenchymal stem cells is CD44. OA induces differentiation of mesenchymal stem cells to bone cells through CD44.
# [4] = target: T1, CD44; assay: Binding of biotinylated rOA on MC3T3-E1 cells (immunofluorescence, immunoprecipitation, blot for CD44)
# From the text: FIG. 3(A-C) provides images showing osteoactivin binds to CD44 in bone cells. (A) Silver staining and mass spectroscopy analysis of biotinylated rOA added onto MC3T3-E1 cells.
# [5] = tested on: critical size defects in bilateral distal femurs; assay: Sheep model for cancellous bone healing (critical size defect in distal femur, OA-soaked collagen sponge); format: in vivo, sheep (Ovis aries); settings: for radiographic analysis: regeneration of bone at the defect site: vs control femurs
# From the text: Thus, the sheep model provides a way to study the effect of OA on osteogenesis by inducing critical size defects into the long bones of the animals. […] Approval of the Northeast Ohio Medical University Institutional Animal Care and Use Committee (IACUC) was obtained prior to the start of this study. Six (6) male sheep (Ovis aries) between ages 2-3 years old were used, each with a critical size defect (25 mm in depth×11 mm in diameter) drilled into bilateral hind limb distal femurs. The surgical protocol utilized was based on previous work done to develop a model for cancellous bone healing (Malhotra et al, Front Surg. 2014 Sep. 8; 1:37). This method allowed for high quality standardization and sterility processes across each sheep. […] Martini et al., Comp Med. 2001 August; 51(4):292-9; Pearce et al., Eur Cell Mater. 2007 Mar. 2; 13:1-10. The procedures were performed by an orthopedic surgeon. Once under appropriate anesthesia, one femur defect (left hindlimb) was drilled with a cannulated acorn drill (Stryker) and packed with an PBS absorbable collagen sponge (Medline Industries) without OA protein and thus functioned as a control, while the other defect (right hindlimb) was filled with either a low dose (10 μg), or high dose (50 μg) recombinant OA-soaked collagen sponge (R&D Systems). Three sheep received the high dose OA while two received the low dose OA, and one was left as a control. The animals were allowed to recover and then terminated after a period of 10 weeks. The femurs were harvested for x-ray (General Electric) and μCT (Scanco) imaging. Blood and urine samples were collected for CBC, CMP and urinalysis (ANTECH Diagnostics). Tissue biopsies were taken from heart, lung, liver, spleen, kidney, thyroid gland, adrenal gland, and skeletal muscle for RNA and histological analyses during post-mortem dissection.
# [6] = CBC, CMP, urinalysis and histological sampling of OA-treated sheep; format: in vivo, sheep (Ovis aries)
# From the text: Approval of the Northeast Ohio Medical University Institutional Animal Care and Use Committee (IACUC) was obtained prior to the start of this study. Six (6) male sheep (Ovis aries) between ages 2-3 years old were used, each with a critical size defect (25 mm in depth×11 mm in diameter) drilled into bilateral hind limb distal femurs. The surgical protocol utilized was based on previous work done to develop a model for cancellous bone healing (Malhotra et al, Front Surg. 2014 Sep. 8; 1:37). This method allowed for high quality standardization and sterility processes across each sheep. […] Martini et al., Comp Med. 2001 August; 51(4):292-9; Pearce et al., Eur Cell Mater. 2007 Mar. 2; 13:1-10. The procedures were performed by an orthopedic surgeon. Once under appropriate anesthesia, one femur defect (left hindlimb) was drilled with a cannulated acorn drill (Stryker) and packed with an PBS absorbable collagen sponge (Medline Industries) without OA protein and thus functioned as a control, while the other defect (right hindlimb) was filled with either a low dose (10 μg), or high dose (50 μg) recombinant OA-soaked collagen sponge (R&D Systems). Three sheep received the high dose OA while two received the low dose OA, and one was left as a control. The animals were allowed to recover and then terminated after a period of 10 weeks. […]
Immunoprecipitation of biotinylated rOA pulled out with streptavidin beads and blotted for CD44 ([4]; MC3T3-E1 cells),Immunofluorescence of CD44 and OA ([4]; bone cells),Molecule,osteogenic activity [1],animals showing complete bone fill [2],bone regeneration [3],"radiographs and μCT of the femur defect site ([5]; 50 μg OA, after 10 weeks, compared to control (FIG. 2))","bone healing and regeneration (radiographic, μCT imaging and histological analysis) ([5]; OA-soaked absorbable collagen sponge vs defect only or collagen sponge alone, n=6)","Micro-CT bone volume and density of the regenerated area ([5]; OA-treated defect sites vs control, 10 weeks)","radiographic analysis: regeneration of bone at the defect site ([5]; high dose (50 μg) recombinant OA-soaked collagen sponge, 10 weeks)","radiographic analysis: regeneration of bone at the defect site ([5]; low dose (10 μg) recombinant OA-soaked collagen sponge, 10 weeks)","adverse systemic effects per laboratory studies or histological sampling ([6]; administered locally, sheep)","CBC, CMP and urinalysis ([6]; control vs OA-treated sheep)"
–,–,LAPFSRGDREKDPLLQDK (listed as Homo sapiens) [SEQ ID NO: 1],demonstrated the osteogenic activity,–,–,–,–,–,–,–,–,–
OA-CD44 interaction,colocalization along the cell membrane,"OA: 572 amino acid transmembrane glycoprotein encoded by the GPNMB gene; recombinant protein (R&D Systems) soaked into collagen sponge (protein, UniProt Q14956 23-572, looked up) Transmembrane glycoprotein NMB: KRFHDVLGNERPSAYMREHNQLNGWSSDENDWNEKLYPVWKRGDMRWKNSWKGGRVQAVLTSDSPALVGSNITFAVNLIFPRCQKEDANGNIVYEKNCRNEAGLSADPYVYNWTAWSEDSDGENGTGQSHHNVFPDGKPFPHHPGWRRWNFIYVFHTLGQYFQKLGRCSVRVSVNTANVTLGPQLMEVTVYRRHGRAYVPIAQVKDVYVVTDQIPVFVTMFQKNDRNSSDETFLKDLPIMFDVLIHDPSHFLNYSTINYKWSFGDNTGLFVSTNHTVNHTYVLNGTFSLNLTVKAAAPGPCPPPPPPPRPSKPTPSLATTLKSYDSNTPGPAGDNPLELSRIPDENCQINRYGHFQATITIVEGILEVNIIQMTDVLMPVPWPESSLIDFVVTCQGSIPTEVCTIISDPTCEITQNTVCSPVDVDEMCLLTVRRTFNGSGTYCVNLTLGDDTSLALTSTLISVPDRDPASPLRMANSALISVGCLAIFVTVISLLVYKKHKEYNPIENSPGNVVRSKGLSVFLNRAKAVFFPGNQEKDPLLKNQEFKGVS",–,70%,stimulates bone regeneration,regenerated bone,significantly accelerated bone healing and regeneration,significant increase,complete regeneration of bone at the defect site,complete regeneration of bone at the defect site,no apparent adverse systemic effects,no apparent abnormalities

# From patent US12234269B2, “Osteogenic biomaterial” (Northeast Ohio Medical University, priority 2014, dated 2025)
